According to patent CN101443359A (GENENTECH INC, dated 2009):

Experiments:
重组人EGFL7蛋白 = target: T1, 重组人EGFL7蛋白 (human, UniProt Q9UHF1 24-273, limits assumed); assay: SPR, BIAcore 3000, room temperature, polyHis-tagged EGFL7 injected, 1:1 model, mAb stock in 50mM Tris/125mM NaCl
T1 construct: also called hEGFL7; 带polyHis标签的EGFL7
T1 sequence (looked up): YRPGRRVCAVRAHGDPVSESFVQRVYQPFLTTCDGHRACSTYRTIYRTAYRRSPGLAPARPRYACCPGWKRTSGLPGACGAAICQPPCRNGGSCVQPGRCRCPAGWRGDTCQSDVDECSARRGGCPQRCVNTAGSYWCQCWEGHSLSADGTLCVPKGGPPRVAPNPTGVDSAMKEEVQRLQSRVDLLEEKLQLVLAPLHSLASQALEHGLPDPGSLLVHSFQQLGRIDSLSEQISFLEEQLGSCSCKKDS

重组小鼠EGFL7蛋白 = target: T2, 重组小鼠EGFL7蛋白 (mouse, UniProt Q9QXT5 22-275, limits assumed); assay: as above
T2 construct: also called mEGFL7; 带polyHis标签的EGFL7
T2 sequence (looked up): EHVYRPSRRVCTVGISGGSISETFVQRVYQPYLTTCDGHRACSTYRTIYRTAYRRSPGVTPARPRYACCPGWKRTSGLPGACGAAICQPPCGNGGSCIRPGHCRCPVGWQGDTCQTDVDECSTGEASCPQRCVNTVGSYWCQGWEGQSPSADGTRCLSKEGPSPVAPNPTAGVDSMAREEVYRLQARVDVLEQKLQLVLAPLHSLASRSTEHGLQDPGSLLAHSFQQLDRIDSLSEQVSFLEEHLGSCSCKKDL

Kd (重组人EGFL7蛋白): 0.473 nM | Kd (重组小鼠EGFL7蛋白): 0.756 nM
B1: 抗EGFL7鼠单抗4F11.1.8 (antibody, V domains shown)
VH: QIQLVQSGPELKKPGETVKISCKASGHTFTTYGMSWVKQAPGKGLKWMGWINTHSGVPTYADDFKGRFAFSLETSASTAHLQINNLKNEDTATYFCARLGSSAVDYWGQGTTVTVSS
VL: DIVLTQSPASLAVSLGQRATISCKASQSVDYDGDSYMSWYQQKPGQPPKLLIYGASNLESGIPARFSGSGSGTDFTLNIHPVEEEDAATYYCQQNNEDPYTFGGGTKVEIKR
notes: Hybridoma deposit PTA-7343
